According to US6943243:

Target: TraR (Agrobacterium strain A348)
Test: cell-based or functional assay

Row | Substance | fold +/- (induction of GUS by C8-AHL, TraR + TraM co-transfected) [fold] | fold +/- (induction of GUS by C8-AHL, TraR + TraS co-transfected) [fold]
1 | TraM | 0.8 | 
2 | TraS |  | 6.6
